Our source for the Kd, koff and kon values is patent US20210188994A1.

This experiment deals with His-tagged FcγRIIIa recombinant protein (UniProt P08637). As to the kind of experiment: SPR (BIACORE X100), His-tagged FcγRIIIa captured on anti-His CM5 chip, antibody as analyte, 1:1 Langmuir fit. (Surface plasmon resonance follows binding to a sensor surface in real time, without labels.)
Sequence of UniProt P08637 (P08637 17-208 limits assumed): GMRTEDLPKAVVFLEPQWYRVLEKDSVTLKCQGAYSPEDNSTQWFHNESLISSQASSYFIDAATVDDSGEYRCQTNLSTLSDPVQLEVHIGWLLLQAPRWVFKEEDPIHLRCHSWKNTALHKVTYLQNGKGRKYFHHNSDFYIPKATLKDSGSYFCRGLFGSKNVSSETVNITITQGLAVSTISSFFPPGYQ

Consider “GAZYVA (obinutuzumab), commercial afucosylated anti-CD20 antibody”, for which the Kd (usually a measure of binding affinity in units of concentration) worked out at 39.9 nM, the koff (commonly the rate constant with which the complex falls apart) is 0.0069 s⁻¹ and the kon (commonly a measure of how fast the partners come together) is 173000 M⁻¹ s⁻¹.
